B1: Azoarcus group I ribozyme (parent)
chain: GUGCCUUGCGCCGGGAAACCACGCAAGGGAUGGUGUCAAAUUCGGCGAAACCUAAGCGCCCGCCCGGGCGUAUGGCAACGCCGAGCCAAGCUUCGGCGCCUGCGCCGAUGAAGGUGUAGAGACUAGACGGCACCCACCUAAGGCAAACGCUAUGGUGAAGGCAUAGUCCAGGGAGUGGCGAAAGUCACACAAACCGG

In the series the parent is B1. The series is described as follows: reverse-splicing fitness (ratio to wild type); higher = more active; in vitro selection; Mg2+ level not given. The essentials:
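An in vitro group I ribozyme library with randomized positions was T7-transcribed and gel-purified. In triplicate, 10 pmol RNA in EPPS pH 7.5 was reacted with 50 pmoles of a 30-nt RNA substrate for 1 h at 37 °C across several added MgCl2 levels (1–48 mM), then stopped with EDTA. Products were reverse transcribed from a substrate-complementary primer, PCR-amplified and sequenced (HiSeq 4000). Fitness is a variant's read proportion after selection over that before, normalised to wild type.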
C82U A111G A120C A145G: the reverse-splicing fitness turned out to be 0.0552. In the case of C82U A111G A120C A145C, the reverse-splicing fitness was determined as 0.0519. Take C82U A111G A120C A145C C150G C169A U176G: the reverse-splicing fitness amounted to 0.00425. For C82U A111G A120C A145C C150G C169A U176A, the reverse-splicing fitness came out at 0.00643.

Consider C82U A111G A120C A145C C150G C169A U176C, for which the reverse-splicing fitness came to 0.00573. Turning to C82U A111C A145G C150A C169U U176C, the reverse-splicing fitness stood at 0.0157. The figure for C82U A111C A145G C150A C169U U176A is 0.0144. For C82U A111C A145G C150A C169U U176G, the reverse-splicing fitness stood at 0.00739.

For the variant C82U A111C A145U U176A, the reverse-splicing fitness worked out at 0.0808. The figure for C82U A111C A145U U176G is 0.0238.

For C82U A111C A145U U176C, the reverse-splicing fitness was determined as 0.103. Then C82U A111C A145U C150G C169U U176A, with 0.00807. On to C82U A111C A145U C150G C169U U176C, for which the reverse-splicing fitness was found to be 0.0119.

As to C82U A111C A145U C150G C169U U176G, the reverse-splicing fitness amounted to 0.00671. On to C82U A111G A120C A145C C150G C169G U176A, for which the reverse-splicing fitness is 0.00761. Then C82U A111G A120C A145C C150G C169G U176C, with 0.004. The figure for C82U A111G A120C A145C C150G C169G U176G is 0.00397.

In the case of C82U A111G A120C A145C C150A C169G U176A, the reverse-splicing fitness amounted to 0.0198.

Regarding C82U A111G A120C A145C C150A C169G U176G, the reverse-splicing fitness is 0.00451. The figure for C82U A111G A120C A145C C150A C169G U176C is 0.00993. Take C82U A111C A145C C150G C169G: the reverse-splicing fitness amounted to 0.00696. With C82U A111C A145C C150G C169U, the reverse-splicing fitness was 0.00936. Take C82U A111C A145C C150G C169A: the reverse-splicing fitness was 0.00742.

For the variant C82U A111C C150G C169A U176G, the reverse-splicing fitness came out at 0.00672. Then C82U A111C C150G C169A U176C, with 0.00957; and C82U A111C C150G C169A U176A, with 0.00878.

For the variant C82U A111C A145C C150U C169A U176G, the reverse-splicing fitness is 0.00687. Then C82U A111C A145C C150U C169A U176C, with 0.01; and C82U A111C A145C C150U C169A U176A, with 0.011.

For the variant C82U A111C C150G C169U U176A, the reverse-splicing fitness worked out at 0.00814. Regarding C82U A111C C150G C169U U176G, the reverse-splicing fitness is 0.00577.

Turning to C82U A111C C150G C169U U176C, the reverse-splicing fitness came to 0.0111. Then C82U A111C C150A C169U U176A, with 0.0166; and C82U A111C C150A C169U U176G, with 0.00777. Turning to C82U A111C C150A C169U U176C, the reverse-splicing fitness amounted to 0.0169. The figure for C82U A111G A120C A145G C150A C169G U176C is 0.0213; for C82U A111G A120C A145G C150A C169G U176G it is 0.00547. Then C82U A111G A120C A145G C150A C169G U176A, with 0.0237; and C82U A111C A145U C150G C169G U176A, with 0.00648. The figure for C82U A111C A145U C150G C169G U176C is 0.00532; for C82U A111C A145U C150G C169G U176G it is 0.00703.

On to C82U A111C A145U C150U C169A U176G, for which the reverse-splicing fitness is 0.00765.

Regarding C82U A111C A145U C150U C169A U176C, the reverse-splicing fitness turned out to be 0.011.

For the variant C82U A111C A145U C150U C169A U176A, the reverse-splicing fitness was 0.0126. As for C82U A111G A120C A145C C150G U176C, the reverse-splicing fitness was 0.00742. The figure for C82U A111G A120C A145C C150G U176G is 0.00231; for C82U A111G A120C A145C C150G U176A it is 0.00388. For C82U A111C C169U U176C, the reverse-splicing fitness came out at 0.0146. Turning to C82U A111C C169U U176A, the reverse-splicing fitness came out at 0.0179. Then C82U A111C C169U U176G, with 0.00681; and C82U A111G A120C A145C C150U C169A, with 0.00705; and C82U A111G A120C A145C C150U C169G, with 0.0077.

In the case of C82U A111G A120C A145C C150U C169U, the reverse-splicing fitness was found to be 0.00927. Then C82U A111C A145G C150A C169U, with 0.0103. The figure for C82U A111C A145G C150A C169G is 0.00813. The figure for C82U A111C A145G C150A C169A is 0.0093; for C82U A111C A145U C150A C169U U176G it is 0.00805; for C82U A111C A145U C150A C169U U176C it is 0.013. As for C82U A111C A145U C150A C169U U176A, the reverse-splicing fitness came out at 0.0193. The figure for C82U A111G A120C A145G C150A U176C is 0.0246; for C82U A111G A120C A145G C150A U176G it is 0.00727. For the variant C82U A111G A120C A145G C150A U176A, the reverse-splicing fitness came out at 0.0119. On to C82U A111C A145U, for which the reverse-splicing fitness stood at 0.246. The figure for C82U A111C A145G is 0.266; for C82U A111C A145U C150U C169U U176G it is 0.00669. Then C82U A111C A145U C150U C169U U176C, with 0.0136; and C82U A111C A145U C150U C169U U176A, with 0.0154; and C82U A111G A120C A145C C150U, with 0.0145.

As for C82U A111G A120C A145C C150G, the reverse-splicing fitness is 0.00936. Then C82U A111G A120C A145C C150A, with 0.00803.

For C82U A111C C150G, the reverse-splicing fitness is 0.0163. In the case of C82U A111C C150A, the reverse-splicing fitness was found to be 0.0255. The figure for C82U A111C C150U is 0.123; for C82U A111G A120C A145G C150A C169A U176C it is 0.018; for C82U A111G A120C A145G C150A C169A U176A it is 0.0157. Regarding C82U A111G A120C A145G C150A C169A U176G, the reverse-splicing fitness stood at 0.00589.

Regarding C82U A111C A145C C169U U176C, the reverse-splicing fitness came out at 0.0113. Then C82U A111C A145C C169U U176A, with 0.0157. Then C82U A111C A145C C169U U176G, with 0.00632.

Take C82U A111C C150G C169G U176A: the reverse-splicing fitness is 0.00576. Then C82U A111C C150G C169G U176G, with 0.00523; and C82U A111C C150G C169G U176C, with 0.00488. On to C82U A111C A145G C169A, for which the reverse-splicing fitness stood at 0.00937. Then C82U A111C A145G C169G, with 0.00955.
